Values quoted from earlier work in article PMC7294136.

How the values were obtained:
[1] = biological target: RAGE V domain (Homo sapiens) (UniProt Q15109)
RAGE (Homo sapiens) = RAGE (Homo sapiens) (UniProt Q15109); test: SPR

Substance | Kd [1] [nM] | Kd (RAGE (Homo sapiens)) [nM]
S100B (from UniProt P04271) | 500 | 
S100A4 (from UniProt P26447) |  | 138
